The text below walks through data of article PMC5477170, “Biochemical characterization of an enantioselective esterase from Brevundimonas sp. LY-2” (Microbial Cell Factories, 2017).

By Km is commonly meant the substrate concentration at which the rate is half of its maximum. A word on the kcat: it is the maximal rate divided by the concentration of active sites. Broadly, the kcat/Km is the second-order rate constant that governs catalysis at low substrate concentration.

Data set [1] deals with CCOC(=O)C(C)OC(=O)c1cc(Oc2ccc(C(F)(F)F)cc2Cl)ccc1[N+](=O)[O-]. Description: purified protein. Conditions: 50 mM sodium phosphate, pH 7.0, 40 °C.
In data set [2] the test system is T1, CCCC(=O)Oc1ccc([N+](=O)[O-])cc1.
T1 construct: signal peptide (residues 1-28) removed; C-terminal His-tag, pET-29a(+); E. coli BL21(DE3); full ORF 306 aa; predicted 29,451 Da, SDS-PAGE ~30 kDa; gel filtration 62 kDa, dimer; N-terminus from primer (M)ATAEP
Kind of data set: p-nitrophenyl ester hydrolysis, Lineweaver-Burk. Format: biochemical, Brevundimonas sp. LY-2. Conditions: pH and temperature not stated for this assay. An excerpt:
(§1) p-nitrophenyl ester hydrolysis, Lineweaver-Burk on LacH

Data set [3] relates to T2, CCCCCCCC(=O)Oc1ccc([N+](=O)[O-])cc1.
T2 construct: signal peptide (residues 1-28) removed; C-terminal His-tag, pET-29a(+); E. coli BL21(DE3); full ORF 306 aa; predicted 29,451 Da, SDS-PAGE ~30 kDa; gel filtration 62 kDa, dimer; N-terminus from primer (M)ATAEP
Kind of data set: p-nitrophenyl ester hydrolysis, Lineweaver-Burk. In kind it is biochemical, Brevundimonas sp. LY-2. Conditions: pH and temperature not stated for this assay.
Description: as §1

For data set [4], the system named is T3, CCCCCC(=O)Oc1ccc([N+](=O)[O-])cc1.
T3 construct: signal peptide (residues 1-28) removed; C-terminal His-tag, pET-29a(+); E. coli BL21(DE3); full ORF 306 aa; predicted 29,451 Da, SDS-PAGE ~30 kDa; gel filtration 62 kDa, dimer; N-terminus from primer (M)ATAEP
Kind of data set: p-nitrophenyl ester hydrolysis, Lineweaver-Burk. In kind it is biochemical, Brevundimonas sp. LY-2. Conditions: pH and temperature not stated for this assay.
Description: as §1

The subject of data set [5] is T4, CC(=O)Oc1ccc([N+](=O)[O-])cc1.
T4 construct: signal peptide (residues 1-28) removed; C-terminal His-tag, pET-29a(+); E. coli BL21(DE3); full ORF 306 aa; predicted 29,451 Da, SDS-PAGE ~30 kDa; gel filtration 62 kDa, dimer; N-terminus from primer (M)ATAEP
Description: p-nitrophenyl ester hydrolysis, Lineweaver-Burk. Format: biochemical, Brevundimonas sp. LY-2. Conditions: pH and temperature not stated for this assay.
Description: as §1

Take LacH (Brevundimonas sp. LY-2): the Km in data set [1] turned out to be 67 ± 2 µM; in data set [2], 185 ± 9 µM; in data set [3] it was 335 ± 16 µM; in data set [4], 208 ± 12 µM; in data set [5] it was 147 ± 8 µM. In addition, the kcat in data set [1] turned out to be 0.87 ± 0.09 s⁻¹; in data set [2] it was 7.48 ± 0.45 s⁻¹; in data set [3], 0.767 ± 0.06 s⁻¹; in data set [4], 3.47 ± 0.13 s⁻¹; in data set [5], 8.39 ± 0.28 s⁻¹. For the same substance, the kcat/Km in data set [1] came out at 12900 M⁻¹ s⁻¹; in data set [2], 40400 M⁻¹ s⁻¹; in data set [3], 2290 M⁻¹ s⁻¹; in data set [4], 16700 M⁻¹ s⁻¹; in data set [5], 50100 M⁻¹ s⁻¹.
